Tests used:
[1] = tested on: BHK-ABCA1 plasma membrane microdomains; test: Desorption of phosphatidylcholine and sphingomyelin species from raft and non-raft domains of BHK-ABCA1 cells; type: cell-based, hamster; conditions: 0.96 μM, 12 h
Description: Lipid labeling was performed as described previously with minor modifications. Briefly, BHK-cells were labeled with either 5 μCi/ml ^3[H] choline (Perkin-Elmer) for 48 h or 3 μCi/ml ^3[H] cholesterol (Perkin-Elmer) for 24 h, and then stimulated as described above. Cells were subsequently incubated with lipid-free apoA-I or CS-6253 at (0.96 μM) for 12h, and fractionated by sucrose gradient in the presence of 0.2% Triton X-100. For each fraction, lipids were extracted by Folch and ^3[H]choline-labeled PtdCho, and SM were separated by TLC in the solvent system chloroform-methanol-water (65:35:4; v/v/v), and counted.
Fig 4 Apo A-I (left panels) and CS-6253 (right panels) desorb phospholipids species from raft and nonraft domains. […] After lipid extraction by Folch, ^3[H]phosphatidyl choline (^3[H]PC) (A and B), or ^3[H]sphingomyelin (^3[H]SM) (C and D) in each fraction was assessed for radioactivity. Radioactivity appearing in fractions corresponding to raft (1–5) and nonraft (6–10) material was pooled, and desorption of ^3[H]PC (A and B inset) and ^3[H]SM (C and D inset), from raft versus nonraft in the presence of apo A-I or CS-6253 was expressed as a percentage of control (100%, in the absence of acceptor). ^3[H]PC and ^3[H]SM distributions in sucrose gradient fractions after 12h incubation with apo A-I or CS-6253 were assessed by TLC respectively. […]

human ABCG1 = molecular target: T1, human ABCG1 (Homo sapiens, UniProt P45844); test: ABCG1-mediated cholesterol efflux from BHK-ABCG1 cells; type: cell-based
T1 construct: expressed in transfected cells; host or cells: BHK cells, stably transfected, induced with 10 nmol/l mifepristone
Description: Supplementary file pone.0131997.s009.tif: S8 Fig In-vitro time-dependent ABCG1-mediated cholesterol efflux activity to nHDL-CS-6253 particles generated by BHK cells expressing ABCA1. Unlabeled BHK cells expressing ABCA1 were treated with 0.96 μM lipid free apo A-I or CS-6253 for 18 h as described in experimental procedures in the online-only Supplementary appendix, S1 Appendix. Then the medium was collected and added to 3[H]cholesterol-labeled ABCG1 expressing cells in a time-dependent fashion (0–6h), and assayed for cholesterol efflux (only 6h time point is shown). (TIF) Click here for additional data file.
Supplementary file pone.0131997.s010.tif: S9 Fig In-vitro ABCG1-mediated cholesterol efflux activity to lipid free CS-6253 and nHDL-CS-6253 particles generated by BHK cells expressing ABCA1. Unlabeled ABCA1 expressing cells were treated with increasing concentrations of apo A-I or CS-6253 for 18 h. The medium from unlabeled ABCA1 cells treated as described in experimental procedures, centrifuged to remove cellular debris, added to ^3[H]cholesterol-BHK ABCG1 expressing cells for 6 h, and assayed for efflux as described in the online-only Supplementary appendix, S1 Appendix. Lipid free peptide and apo A-I are also tested against ABCG1 expressing cells for 6h cholesterol efflux. (We selected 1 μM nHDL mimetic or nHDL-apo A-I or lipid free peptide and apo A-I for the figure). […] Efflux of ^3[H]cholesterol is shown as means ± SD of triplicate experiments. (TIF) Click here for additional data file.
All cell culture incubations were performed at 37 °C in a humidified 5% CO2. Cells (J774, or BHK overexpressing human ABCG1) were labeled with 2 μCi/ml ^3H-free cholesterol (Perkin Elmer, Norwalk, Connecticut) for 24 h. Simultaneously J774 cells were incubated with 2 μg/ml ACAT inhibitor (Sandoz, Sigma, Oakville, Canada). Afterward, J774 and BHK-ABCG1 were stimulated with 0.5 mmol/l (cpt-cAMP) (2) or 10 nmol/l mifepristone for 18-20 h, respectively (1). Cells were incubated with various doses of acceptor in media for 6 h for J774 macrophages and BHK-ABCG1 cells. Media were collected, centrifuged at 3.000 g for 5min to remove cell debris, and counted for radioactivity. Cells were lysed in 0.5 ml of (0.1N) NaOH overnight with constant shaking. Further, 0.2 ml cells lysates were mixed with scintillation liquid and counted for radioactivity. Efflux from stimulated cells without acceptor was subtracted from total efflux to determine net efflux. Cholesterol efflux was calculated according to the following formula as the percentage of ^3H-cpm medium/(^3H-cpm medium + ^3H-cpm cells) x 100%. Efflux efficiency (Km) was calculated using the Michaelis-Menten equation (Graph-Pad Prism6 software) respectively (S1, S8 and S9 Figs.)

[2] = BHK-ABCG1, 6 h, mean ± SD, triplicate

maximum net ABCG1 cholesterol efflux above base line (human ABCG1; lipid free, BHK-ABCG1, 6 h): 1%
Substance: apolipoprotein A-I [apo A-I]
PC desorption in PM microdomains (in words) [1]: less PC desorption in PM microdomains than CS-6253
SM desorption [1]: desorbed from both non-raft and raft domains
Km (human ABCG1; [2]): 0.06 ± 0.01 µM
Km, ABCG1-mediated cholesterol efflux (human ABCG1; [2]): 1.7 ± 0.50 µg/mL
Vmax, ABCG1-mediated cholesterol efflux (human ABCG1; BHK-ABCG1, mean ± SD, triplicate): 0.96 ± 0.01 % efflux/6h
